Paper doi:10.1101/2022.11.20.517256 (bioRxiv, 2022)

Molecular target: the molecule itself
Experiment: cryo-EM structure

B1: Erwinia ligand-gated ion channel (ELIC), wild type (natural protein)
chain: APADNAADARPVDVSVSIFINKIYGVNTLEQTYKVDGYIVAQWTGKPRKTPGDKPLIVENTQIERWINNGLWVPALEFINVVGSPDTGNKRLMLFPDGRVIYNARFLGSFSNDMDFRLFPFDRQQFVLELEPFSYNNQQLRFSDIQVYTENIDNEEIDEWWIRKASTHISDIRYDHLSSVQPNQNEFSRITVRIDAVRNPSYYLWSFILPLGLIIAASWSVFWLESFSERLQTSFTLMLTVVAYAFYTSNILPRLPYTTVIDQMIIAGYGSIFAAILLIIFAHHRQAMGVEDDLLIQRCRLAFPLGFLAIGCVLVIRGITL
  stoichiometry N: 5
